Measured values taken from article PMC10511449, “Custom tuning of Rieske oxygenase reactivity” (Nature Communications, 2023).

Key:
[1] = target: T1, phthalate dioxygenase (PDO) (Comamonas testosteroni, UniProt B7WQT1); assay: LC-MS product detection; assay type: biochemical; conditions: VanB reductase, 2 mM substrate, 500 µM NADH, 100 µM ferrous ammonium sulfate, 30 °C
T1 construct: gene CtesDRAFT_PD2022; codon-optimized, MBP tag removed with TEV protease, pMCSG9, E. coli C41(DE3); authors use structure PDB 7V25 (earlier work) for PDO residues
T1 sequence (B7WQT1 1-439): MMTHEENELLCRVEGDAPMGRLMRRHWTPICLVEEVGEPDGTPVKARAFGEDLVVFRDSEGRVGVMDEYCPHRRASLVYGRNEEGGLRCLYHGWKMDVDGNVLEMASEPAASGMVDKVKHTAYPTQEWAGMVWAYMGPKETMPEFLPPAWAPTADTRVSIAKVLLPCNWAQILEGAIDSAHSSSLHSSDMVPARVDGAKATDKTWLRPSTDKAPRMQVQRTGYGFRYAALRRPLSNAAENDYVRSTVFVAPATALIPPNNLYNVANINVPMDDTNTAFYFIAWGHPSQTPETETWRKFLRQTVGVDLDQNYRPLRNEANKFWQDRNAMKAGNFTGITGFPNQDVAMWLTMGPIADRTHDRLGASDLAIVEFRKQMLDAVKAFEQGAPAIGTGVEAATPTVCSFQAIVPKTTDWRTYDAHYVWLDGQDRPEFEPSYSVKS

[2] = substrate: O=C(O)c1ccccc1; assay: LC-MS product formation, Michaelis-Menten; assay type: biochemical, Comamonas testosteroni; conditions: apparent; VanB reductase (4:1), 500 µM NADH, O2, 100 µM ferrous ammonium sulfate
From the text: (§1) LC-MS product formation, Michaelis-Menten on TsaM (p-toluenesulfonate methyl-monooxygenase)

[3] = substrate: O=S(=O)(O)c1ccc(O)cc1; assay: LC-MS product formation, Michaelis-Menten; assay type: biochemical, Comamonas testosteroni; conditions: apparent; VanB reductase (4:1), 500 µM NADH, O2, 100 µM ferrous ammonium sulfate
From the text: as §1

[4] = substrate: CSc1ccc(C(=O)O)cc1; assay: LC-MS product formation, Michaelis-Menten; assay type: biochemical, Comamonas testosteroni; conditions: apparent; VanB reductase (4:1), 500 µM NADH, O2, 100 µM ferrous ammonium sulfate
From the text: as §1

[5] = substrate: COc1ccc(C(=O)O)cc1; assay: LC-MS product formation, Michaelis-Menten; assay type: biochemical, Comamonas testosteroni; conditions: apparent; VanB reductase (4:1), 500 µM NADH, O2, 100 µM ferrous ammonium sulfate
From the text: as §1

[6] = substrate: Cc1ccc([N+](=O)[O-])cc1; assay: LC-MS product formation, Michaelis-Menten; assay type: biochemical, Comamonas testosteroni; conditions: apparent; VanB reductase (4:1), 500 µM NADH, O2, 100 µM ferrous ammonium sulfate
From the text: as §1

[7] = substrate: CNc1ccc(C(=O)O)cc1; assay: LC-MS product formation, Michaelis-Menten; assay type: biochemical, Comamonas testosteroni; conditions: apparent; VanB reductase (4:1), 500 µM NADH, O2, 100 µM ferrous ammonium sulfate
From the text: as §1

[8] = substrate: O=S(=O)(O)c1ccccc1; assay: LC-MS product formation, Michaelis-Menten; assay type: biochemical, Comamonas testosteroni; conditions: apparent; VanB reductase (4:1), 500 µM NADH, O2, 100 µM ferrous ammonium sulfate
From the text: as §1

[9] = substrate: Cc1cccc(C(=O)O)c1; assay: LC-MS product formation, Michaelis-Menten; assay type: biochemical, Comamonas testosteroni; conditions: apparent; VanB reductase (4:1), 500 µM NADH, O2, 100 µM ferrous ammonium sulfate
From the text: as §1

[10] = substrate: CC(C)c1ccc(C(=O)O)cc1; assay: LC-MS product formation, Michaelis-Menten; assay type: biochemical, Comamonas testosteroni; conditions: apparent; VanB reductase (4:1), 500 µM NADH, O2, 100 µM ferrous ammonium sulfate
From the text: as §1

[11] = substrate: Cc1ccc(N)cc1; assay: LC-MS product formation, Michaelis-Menten; assay type: biochemical, Comamonas testosteroni; conditions: apparent; VanB reductase (4:1), 500 µM NADH, O2, 100 µM ferrous ammonium sulfate
From the text: as §1

[12] = substrate: CCc1ccc(C(=O)O)cc1; assay: LC-MS product formation, Michaelis-Menten; assay type: biochemical, Comamonas testosteroni; conditions: apparent; VanB reductase (4:1), 500 µM NADH, O2, 100 µM ferrous ammonium sulfate
From the text: as §1

[13] = substrate: Cc1ccc(S(=O)(=O)O)cc1; assay: LC-MS product formation, Michaelis-Menten; assay type: biochemical, Comamonas testosteroni; conditions: apparent; VanB reductase (4:1), 500 µM NADH, O2, 100 µM ferrous ammonium sulfate
From the text: as §1

[14] = substrate: O=C(O)c1ccc(O)cc1; assay: purified protein; conditions: apparent; VanB reductase (4:1), 500 µM NADH, O2, 100 µM ferrous ammonium sulfate
[15] = substrate: Cc1ccc(C(=O)O)cc1; assay: purified protein; conditions: apparent; VanB reductase (4:1), 500 µM NADH, O2, 100 µM ferrous ammonium sulfate

O=C(O)c1ccccc1 [compound 38, benzoate]
LC-MS product detection [1]: PDO-VanB system catalyzes a dioxygenation reaction to transform benzoate

B1: TsaM (p-toluenesulfonate methyl-monooxygenase) (Comamonas testosteroni) (protein)
chain: MFIRNCWYVAAWDTEIPAEGLFHRTLLNEPVLLYRDTQGRVVALENRCCHRSAPLHIGRQEGDCVRCLYHGLKFNPSGACVEIPGQEQIPPKTCIKSYPVVERNRLVWIWMGDPARANPDDIVDYFWHDSPEWRMKPGYIHYQANYKLIVDNLLDFTHLAWVHPTTLGTDSAASLKPVIERDTTGTGKLTITRWYLNDDMSNLHKGVAKFEGKADRWQIYQWSPPALLRMDTGSAPTGTGAPEGRRVPEAVQFRHTSIQTPETETTSHYWFCQARNFDLDDEALTEKIYQGVVVAFEEDRTMIEAHEKILSQVPDRPMVPIAADAGLNQGRWLLDRLLKAENGGTAP
notes: codon-optimized, N-terminal His-tag with TEV site, E. coli C41(DE3), trimer ~120 kDa; assayed with VanB as non-native reductase
Km [2]: 80 ± 1.5 µM | Vmax [2]: 1 µM/min | kcat [2]: 0.00867 ± 0.00217 s⁻¹ | kcat/Km [2]: 99 ± 20 M⁻¹ s⁻¹ | Km [3]: 80 ± 2.8 µM | Vmax [3]: 1.3 µM/min | kcat [3]: 0.011 ± 0.00167 s⁻¹ | kcat/Km [3]: 130 ± 22 M⁻¹ s⁻¹ | Km [4]: 240 ± 2.5 µM | Vmax [4]: 2.6 µM/min | kcat [4]: 0.0217 ± 0.00267 s⁻¹ | kcat/Km [4]: 88 ± 14 M⁻¹ s⁻¹ | Km [5]: 180 ± 8.9 µM | Vmax [5]: 3.3 µM/min | kcat [5]: 0.0267 ± 0.00417 s⁻¹ | kcat/Km [5]: 150 ± 20 M⁻¹ s⁻¹ | Km [6]: 230 ± 12 µM | Vmax [6]: 2.9 µM/min | kcat [6]: 0.0233 ± 0.00417 s⁻¹ | kcat/Km [6]: 100 ± 16 M⁻¹ s⁻¹ | Km [7]: 240 ± 11 µM | Vmax [7]: 3.2 µM/min | kcat [7]: 0.0267 ± 0.00217 s⁻¹ | kcat/Km [7]: 110 ± 8.8 M⁻¹ s⁻¹ | Km [8]: 76 ± 3.6 µM | Vmax [8]: 1.1 µM/min | kcat [8]: 0.00967 ± 0.00333 s⁻¹ | kcat/Km [8]: 120 ± 47 M⁻¹ s⁻¹ | Km [9]: 100 ± 4.2 µM | Vmax [9]: 3.1 µM/min | kcat [9]: 0.0267 ± 0.00617 s⁻¹ | kcat/Km [9]: 260 ± 50 M⁻¹ s⁻¹ | Km [10]: 150 ± 6.5 µM | Vmax [10]: 4.1 µM/min | kcat [10]: 0.035 ± 0.00433 s⁻¹ | kcat/Km [10]: 230 ± 24 M⁻¹ s⁻¹ | Km [11]: 110 ± 7.7 µM | Vmax [11]: 3.2 µM/min | kcat [11]: 0.0267 ± 0.00233 s⁻¹ | kcat/Km [11]: 230 ± 21 M⁻¹ s⁻¹ | Km [12]: 65 ± 3.8 µM | Vmax [12]: 7.3 µM/min | kcat [12]: 0.06 ± 0.00567 s⁻¹ | kcat/Km [12]: 930 ± 95 M⁻¹ s⁻¹ | Km [13]: 3.8 ± 0.60 µM | Vmax [13]: 6.2 µM/min | kcat [13]: 0.05 ± 0.00367 s⁻¹ | kcat/Km [13]: 13000 ± 2200 M⁻¹ s⁻¹ | Km [14]: 86 ± 2.1 µM | Vmax [14]: 1 µM/min | kcat [14]: 0.00833 s⁻¹ | kcat/Km [14]: 98 M⁻¹ s⁻¹ | Km [15]: 13 ± 1.3 µM | Vmax [15]: 11 µM/min | kcat [15]: 0.0933 s⁻¹ | kcat/Km [15]: 7200 M⁻¹ s⁻¹
